Square brackets hold non-standard residues; d marks the D form. Ends that are not written are not given here. Tyr(3-NO2) = N[C@@H](Cc1ccc(O)c([N+](=O)[O-])c1)C(=O)O; Nle = CCCC[C@H](N)C(=O)O; 2Abz = Nc1ccccc1C(=O)O
Legend:
Format in all cases: biochemical
uPA = uPA (Homo sapiens, UniProt P00749); assay: FRET peptide cleavage efficiency with uPA
matriptase = target: T1, matriptase (Homo sapiens, UniProt Q9Y5Y6); assay: FRET peptide cleavage efficiency with matriptase
T1 construct: purchased R&D Systems 3946-SEB
T1 sequence (Q9Y5Y6 615-855 limits assumed): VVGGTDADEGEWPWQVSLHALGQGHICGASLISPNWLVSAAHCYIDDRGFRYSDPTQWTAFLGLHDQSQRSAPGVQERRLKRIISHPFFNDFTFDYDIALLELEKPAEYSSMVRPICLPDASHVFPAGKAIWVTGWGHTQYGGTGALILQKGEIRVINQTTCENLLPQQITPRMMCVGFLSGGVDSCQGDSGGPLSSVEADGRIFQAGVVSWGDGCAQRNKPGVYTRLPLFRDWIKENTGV

MMP-2 = target: T2, MMP-2 (Homo sapiens, UniProt P08253); assay: FRET peptide cleavage efficiency with MMP-2
T2 construct: purchased SIGMA PF023
T2 sequence (P08253 110-660): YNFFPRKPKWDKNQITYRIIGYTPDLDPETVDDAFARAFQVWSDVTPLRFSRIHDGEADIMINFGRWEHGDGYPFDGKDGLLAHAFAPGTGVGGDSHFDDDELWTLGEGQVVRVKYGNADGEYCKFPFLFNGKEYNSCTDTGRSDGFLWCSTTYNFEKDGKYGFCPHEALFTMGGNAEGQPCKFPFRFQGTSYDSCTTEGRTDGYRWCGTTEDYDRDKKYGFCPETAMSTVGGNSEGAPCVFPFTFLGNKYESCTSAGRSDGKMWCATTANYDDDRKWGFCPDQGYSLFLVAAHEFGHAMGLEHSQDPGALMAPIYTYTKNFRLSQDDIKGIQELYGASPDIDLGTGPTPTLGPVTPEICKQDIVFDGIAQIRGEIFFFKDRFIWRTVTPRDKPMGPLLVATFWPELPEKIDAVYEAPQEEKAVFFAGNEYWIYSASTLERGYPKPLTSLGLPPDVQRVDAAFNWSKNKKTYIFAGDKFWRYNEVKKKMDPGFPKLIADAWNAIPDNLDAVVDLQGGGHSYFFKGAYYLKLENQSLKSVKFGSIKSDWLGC

[1] = 200 uM linker, 1 ug/ml protease, 37° C., buffer A pH 8.5
[2] = 200 uM linker, 1 ug/ml protease, 37° C., buffer B pH 9.0
[3] = 200 uM linker, 1 ug/ml protease, 37° C., buffer C pH 7.5

| Substance | % cleavage uPA t = 15 min (uPA; [1]) [%] | % cleavage uPA t = 60 min (uPA; [1]) [%] | % cleavage uPA t = 120 min (uPA; [1]) [%] | % cleavage Matriptase t = 15 min (matriptase; [2]) [%] | % cleavage Matriptase t = 60 min (matriptase; [2]) [%] | % cleavage Matriptase t = 120 min (matriptase; [2]) [%] | % cleavage MMP-2 t = 15 min (MMP-2; [3]) [%] | % cleavage MMP-2 t = 60 min (MMP-2; [3]) [%] | % cleavage MMP-2 t = 120 min (MMP-2; [3]) [%] | % cleavage uPA t = 15 min (uPA) [%] | % cleavage uPA t = 60 min (uPA) [%] | % cleavage uPA t = 120 min (uPA) [%] | % cleavage Matriptase t = 15 min (matriptase) [%] | % cleavage Matriptase t = 60 min (matriptase) [%] | % cleavage Matriptase t = 120 min (matriptase) [%] | % cleavage MMP-2 t = 15 min (MMP-2) [%] | % cleavage MMP-2 t = 60 min (MMP-2) [%] | % cleavage MMP-2 t = 120 min (MMP-2) [%] |
| --- | --- | --- | --- | --- | --- | --- | --- | --- | --- | --- | --- | --- | --- | --- | --- | --- | --- | --- |
| RQRRS-Nle-PLGLAG ([2Abz]RQRRS[Nle]PLGLAG[Tyr(3-NO2)]-NH2) [LNK025] | 0 | 1 | 2 | 97 | 84 | 77 | 64 | 97 | 98 | – | – | – | – | – | – | – | – | – |
| SGRVLPANLVG ([2Abz]SGRVLPANLVG[Tyr(3-NO2)]-NH2) [LNK015] | 0 | 0 | 1 | 25 | 78 | 96 | 94 | 99 | 98 | – | – | – | – | – | – | – | – | – |
| SGRVLPLGMRA ([2Abz]SGRVLPLGMRA[Tyr(3-NO2)]-NH2) [LNK023] | 2 | 2 | 3 | 38 | 92 | 99 | 96 | 98 | 98 | – | – | – | – | – | – | – | – | – |
| PASNRRLPLGLAG ([2Abz]PASNRRLPLGLAG[Tyr(3-NO2)]-NH2) [LNK018] | 0 | 0 | 0 | 49 | 92 | 97 | 40 | 83 | 87 | – | – | – | – | – | – | – | – | – |
| SSRVFRKPANLAG ([2Abz]SSRVFRKPANLAG[Tyr(3-NO2)]-NH2) [LNK019] | 4 | 6 | 10 | 90 | 97 | 97 | 84 | 99 | 99 | – | – | – | – | – | – | – | – | – |
| SPLGLAGS ([2Abz]SPLGLAGS[Tyr(3-NO2)]-NH2) [LNK030] | 0 | 0 | 0 | 0 | 0 | 0 | 67 | 100 | 99 | – | – | – | – | – | – | – | – | – |
| RYGKSAPLGLAG ([2Abz]RYGKSAPLGLAG[Tyr(3-NO2)]-NH2) [LNK027] | 3 | 9 | 17 | 99 | 97 | 98 | 66 | 99 | 99 | – | – | – | – | – | – | – | – | – |
| SGRVLGPAGLVG (Abz-SGRVLGPAGLVG[Tyr(3-NO2)]) [LNK005] | – | – | – | – | – | – | – | – | – | 0 | 0 | 1 | 15 | 63 | 86 | 100 | 98 | 97 |
| RQRRSVVGG ([2Abz]RQRRSVVGG[Tyr(3-NO2)]-NH2) [LNK029] | 0 | 0 | 1 | 96 | 96 | 98 | 0 | 0 | 0 | – | – | – | – | – | – | – | – | – |
| SSRAVFRKNLGPLGLAG ([2Abz]SSRAVFRKNLGPLGLAG[Tyr(3-NO2)]-NH2) [LNK002] | 5 | 10 | 18 | 89 | 85 | 84 | 77 | 99 | 98 | – | – | – | – | – | – | – | – | – |
| SGRVLTLRKAALPLAM ([2Abz]SGRVLTLRKAALPLAM[Tyr(3-NO2)]-NH2) [LNK020] | 11 | 26 | 45 | 98 | 99 | 99 | 55 | 98 | 99 | – | – | – | – | – | – | – | – | – |
| SGRVLPYAMTA ([2Abz]SGRVLPYAMTA[Tyr(3-NO2)]-NH2) [LNK024] | 1 | 0 | 1 | 44 | 92 | 98 | 55 | 97 | 99 | – | – | – | – | – | – | – | – | – |
| SGRVLTLRKAGPAGLVG ([2Abz]SGRVLTLRKAGPAGLVG[Tyr(3-NO2)]-NH2) [LNK011] | 6 | 17 | 35 | 99 | 99 | 99 | 98 | 99 | 98 | – | – | – | – | – | – | – | – | – |
| RQRRSAPLGLAG ([2Abz]RQRRSAPLGLAG[Tyr(3-NO2)]-NH2) [LNK009] | 0 | 1 | 3 | 71 | 45 | 31 | 72 | 99 | 99 | – | – | – | – | – | – | – | – | – |
| SGRVLTLRKAGPANLVG ([2Abz]SGRVLTLRKAGPANLVG[Tyr(3-NO2)]-NH2) [LNK012] | 0 | 15 | 34 | 99 | 99 | 98 | 97 | 97 | 94 | – | – | – | – | – | – | – | – | – |
| SGRVLRKAGPAGLVG ([2Abz]SGRVLRKAGPAGLVG[Tyr(3-NO2)]-NH2) [LNK013] | 0 | 2 | 6 | 99 | 94 | 94 | 99 | 99 | 100 | – | – | – | – | – | – | – | – | – |
| SGRVLGPANLVG (Abz-SGRVLGPANLVG[Tyr(3-NO2)]) [LNK006] | – | – | – | – | – | – | – | – | – | 0 | 0 | 1 | 19 | 71 | 92 | 98 | 98 | 96 |
| RQRRSAAPLGLAG ([2Abz]RQRRSAAPLGLAG[Tyr(3-NO2)]-NH2) [LNK028] | 0 | 1 | 2 | 97 | 86 | 79 | 72 | 99 | 99 | – | – | – | – | – | – | – | – | – |
| KLFSSKQ ([2Abz]KLFSSKQ[Tyr(3-NO2)]-NH2) [LNK072] | – | – | – | – | – | – | 1 | 13 | 25 | – | – | – | – | – | – | – | – | – |

From patent publication US20240400614A1, “CLEAVABLE PEPTIDES AND METHODS OF USE THEREOF” (Bright Peak Therapeutics AG, priority 2023, published 2024)
